Read-outs that look alike come from different tables or passages of the source.

Common to all, as to test: SPR
(In general: In SPR one partner is held on a chip, and binding of the other changes the refractive index at the surface.)

The target of assay [1] is T1, Nb6E-biotin (biotin at the C terminus (sortagging)).
Assay [2] concerns the target T1, Nb6E-biotin. This is another data set of the same source.
A further assay addresses Nb127–biotin (biotin at the C terminus (sortagging)).
Assay [3] concerns the target T1, Nb6E-biotin. The source holds these as a separate data set.

T1 sequence (VHH, as listed by the source): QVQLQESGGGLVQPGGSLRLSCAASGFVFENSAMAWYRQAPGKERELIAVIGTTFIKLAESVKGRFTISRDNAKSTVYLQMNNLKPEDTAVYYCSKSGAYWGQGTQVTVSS
Chain of Nb127–biotin (biotin at the C terminus (sortagging)) (VHH, as listed by the source): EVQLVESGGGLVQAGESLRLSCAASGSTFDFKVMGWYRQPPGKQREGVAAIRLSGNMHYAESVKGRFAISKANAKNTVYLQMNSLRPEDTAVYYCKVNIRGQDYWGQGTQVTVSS

B1: 6E-W4 (peptide)
chain: QADWEAKELARQIS
Broadly, the Kd is the constant that tells how readily two partners part at equilibrium. In turn, B1 yielded an equilibrium dissociation constant (Kd) with Nb6E-biotin [1] of 15.2 nM.

B2: 6E-M9 (peptide)
chain: QADQEAKEMARQIS
B2: the dissociation constant Kd with Nb6E-biotin [2] stood at 78.2 nM.

B3: 6E-W7 (peptide)
chain: QADQEAWELARQIS
Turning to B3, in the assay with Nb6E-biotin [1], binding was put at a Kd of 17.6 nM.

B4: 127-tag peptide (peptide)
chain: SFEDFWKGED
On to B4, for which the Kd in the assay with Nb127–biotin is 16.8 nM.

B5: G3-6E (peptide)
chain: GGGQADQEAKELARQIS
Consider B5, for which, in the assay with Nb6E-biotin [3], the dissociation constant (Kd) was found to be 4.2 nM.

B6: 6E-W8 (peptide)
chain: QADQEAKWLARQIS
In the assay with Nb6E-biotin [1], B6 displayed a Kd of 9.2 nM.

B7: 6E-WT peptide (peptide)
chain: QADQEAKELARQIS
For the molecule B7, in the assay with Nb6E-biotin [2], binding was put at a Kd of 159 nM.

For the origin of these results see article PMC12212259 (2025).
